# Assay results: patent US20240245805A1 (Orna Therapeutics, Inc., priority 2020, published 2024)
# Test system: HEK293 cells
# Assay type: cell-based, human
# Settings: circular RNA encoding Gluc with the listed IRES (UTR truncated to 675 nt) transfected into HEK293 cells; supernatant after 24 hours
row,Molecule,Expression (luminescence from secreted Gluc protein)
1,"Human coxsackievirus A2 (nucleic acid, source: /note=""Description of Unknown: Human coxsackievirus A2 sequence"") DNA: ACCTTTGTGCGCCTGTTTTATATCCCCACCCCGAGTAAACGTTAGAAGTTACGCAACCCCGATCAATAGTAGGTGTAGCACTCCAGCTGCATCGAGATCAAGCACTTCTGTCTCCCCGGACCGAGTATCAATAGACTGCTAACGCGGTTGAAGGAGAAAACGTTCGTTACCCGGCCAATTACTTCGAGAAGCCCAGTAGTGCCGTGAAAGTTGCGGAGTGTTTCGCTCAGCACTTCCCCCGTGTAGATCAGGCTGATGAGTCACCGCGATCCCCACAGGTGACTGTGGCGGTGGCTGCGTTGGCGGCCTGCCTATGGGGCAACCCATAGGACGCTCTAATACAGACATGGTGCGAAGAGCCTATTGAGCTAATTGGTAGTCCTCCGGCCCCTGAATGCGGCTAATCCTAACTGCGGAGCACATGCCCTCAAACCAGGGGGTGGTGTGTCGTAACGGGTAACTCTGCAGCGGAACCGACTACTTTGGGTGTCCGTGTTTCTTTTTATTCTTATAATGGCTGCTTATGGTGACAATTAAAGAATTGTTACCATATAGCTATTGGATTGGCCATCCGGTGACTAACAAATCGCTCATATACCAGTTTGTTGGTTTTGTTCCCTTATCACATACAGCTCATAACACCCTCTTATATTTACTACAATTGAATAGCAAGAA",7.75E+07
2,"Falcon picornavirus (nucleic acid, lipid formulation; source: /note=""Description of Unknown: Falcon picornavirus sequence"") CGCTTGGAATAAGTTGAGAGGAATTATGCATGCTAGTTGTGTTTGTTTACAACTAATTGTTCTAATCCAAGTGAAGCTCTTCGCTTGGGGCGGCACGACACTTGCCGTAATTCTTCTACCGTCCCTCCACACCTTGTGGATGAAGGGCCGGATGTGTGGCCTCTGGCTAACCCCTCTCTCTGGGGTGATGCTACTGGATGTTTTACTCCTAGACCAAATCACATGAACTCCTCTTGATCCACTTCGGTGGGGCTATGAGCCTGCGGATTAATAGCTGGCGACAGCTACCCCAGGGGCCAAAAGCCACGGTGTTAGCAGCACCCTCATAGTCTGATGCCCAAGGGCTGATGTTGGGAGCTAGTAGTGTGTGTCTGGCCTATGTTTAGGACTTCTGGCCAAGCGCAGAGGAGTGGGGCTGAAGGATGCCCAGAAGGTACCCGTAGGTAACCTTAAGAGACTATGGATCTGATCTGGGGCCCCCTCACGTGGCTTTACCACGTGTTGGGGGTTAAAAAACGTCTAGGCCCCACCAGCCCACGGGAGTGGGCTTTCCCTTAAAAAGCCCAACAATATTTATGGTGACAATTCACTGTTTCTTCTTTGCAATTTTTGTATTCTTGGACTCCTTATTTTTTGTTTGCTTGATTTTAGTGGACATTCAGATTCAAATACAAA",3.08E+06
3,"Antarctic penguin virus A (nucleic acid, chemistry not fully specified; the letters are possibly those of the target site) DNA: CTAGGAGACTACGCAGTGGGATAAGATGACTATGATGTCGTACGGGCAGAAGCCAGTACAGTCGAAGTCGAGACCGACGTCGAGGATTTGACTCTGCCTGACCTAGTGCCATC",8.42E+04
4,"Equine rhinitis A virus (nucleic acid, lipid formulation; Equine rhinitis A virus) AAGGGTTACTGCTCGTAATGAGAGCACATGACATTTTGCCAAGATTTCCTGGCAATTGTCACGGGAGAGAGGAGCCCGTTCTCGGGCACTTTTCTCTCAAACAATGTTGGCGCGCCTCGGCGCGCCCCCCCTTTTTCAGCCCCCTGTCATTGACTGGTCGAAGGCGCTCGCAATAAGACTGGTCGTTGCTTGGCTTTTCTATTGTTTCAGGCTTTAGCGCGCCCTTGCGCGGCGGGCCGTCAAGCCCGTGTGCTGTACAGCACCAGGTAACCGGACAGCGGCTTGCTGGATTTTCCCGGTGCCATTGCTCTGGATGGTGTCACCAAGCTGGCAGATGCGGAGTGAACCTTACGAAGCGACACACCTGTGGTAGCGCTGCCCAGAAGGGAGCGGAGCTCCCCCGCCGCGAGGCGGTCCTCTCTGGCCAAAAGCCCAGCGTTAATAGCGCCTTCTGGGATGCAGGAACCCCACCTGCCAGGTGTGAAGTGGACTAAGTGGATCTCCAATTTGGCCTGTTCTGAACTACACCATCTACTGCTGTGAAGAATGTCCTGAAGGCAAGCTGGTTACAGCCCTGATCAGGAGCCCCGCTCGTGACTCTCGATCGACGCGGGGTCAAAAACTGTCTAAGCAGCAGCAGAAACGCGGGAGCGTTTCTTTTTCCTCATTTGTTTC",3.73E+05
5,"Icavirus (nucleic acid, source: /note=""Description of Unknown: Icavirus sequence"") DNA: CGAAGTTTAAGCTAAGCACCCTCGGGCGTTCCCGGATTATGTGATCACATCAATTTGATGGCTGGTCACCACGCAACGCCTGGAGAGATACTCTTACTTTTCTCTTAAGATCCCCGGTCATTTGACGCTTGTAGGATGATAGGGTTATTTTCCACTATAAATACTTTCATACTCTTGGATGTTCTATATCCAAGACGGGAGGACCTACCCCGTACCCCTTAGAGGTGAGATGCCAAGAACAGGCCCTTTCTGTTCTCTCGACAATGGCATCATAGGCAACAAGCATCACACCAAGATTGCTAAGTTTTGTTAAGAGTTCTTCAAGCTATAGGGTGGCTGTAGCGACCTTCTGATGCCTGCGGATTTCCCCACGGAGCGATCCGTGCCACAGGGGCCAAAAGCCACGGCTAACGCCCATCAGGAGCGGCACTTACCCCGTGCCCCACCCTTGAAACTTGAATGTTCACACTGGCTTCTCTCGGCTTTCTGAACTGTCTGCTTGTTGGGGCCCCGAAGGATGCCCTGGAGGTACCCCATTTTATGGGATCTGACCAGGGGACACCTCAGCTCTCTAAGTTGCTGGTGTTTAAAAAACGTCTAAGGGCCCCCACCCCTTAGGTGGAGGGATCCACCTTTCCTTTATTTTTTAAAACTCTTTTATGGTCACAATTGTTT",4.41E+06
6,"Equine arteritis virus (nucleic acid, lipid formulation; source: /note=""Description of Unknown: Equine arteritis virus sequence"") GCTCGAAGTGTGTATGGTGCCATATACGGCTCACCACCATATACACTGCAAGAATTACTATTCTTGTGGGCCCCTCTCGGTAAATCCTAGAGGGCTTTCCTCTCGTTATTGCGAGATTCGTCGTTAGATAACGGCAAGTTCCCTTTCTTACTATCCTATTTTCATCTTGTGGCTTGACGGGTCACTGCCATCGTCGTCGATCTCTATCAACTACCCTTGCGACT",1.89E+05
7,"Enterovirus sp. isolate CPML (nucleic acid, listed as Enterovirus sp., lipid formulation) ACTCTGGTATCACGGTACCTTTGCACGCCTATTTTATACCCCTTCCCCATCGTAACTTAGAAGCAACAAACAAACTGCCCAATAGCAGCACAACACCCAGTTGTGTTAGGGGCAAGCACTTCTGTTTCCCCGGAAGGGTCTGACGGTATGCTGTACCCACGGCAGAAGTATGACCTACCGTTAACCGGCCATGTACTTCGAGAAGCCTAGTACCATTATGAAGGTTGATTGATGTTACGCTCCCCAGCAACCCCAGCTGGTAGTTCTGGTCGATGAGTCTCGGCATTCCCCACGGGCGACCGTGGCCGAGGCTGCGTTGGCGGCCAGCCTACACCATACGGTGTAGGACGTCAAGATACTGACATGGTGTGAAGAGCCTATTGAGCTACGTGGTAGTCCTCCGGCCCCTGAATGCGGCTAATCCTAACTCCGGAGCATCCGCCAGTAAGCCCACTGGAAGGGTGTCGTAATGCGAAAGTCTGGAGCGGAACCGACTACTTTGGGTGTCCGTGTTTCCTGTTTTACTTATTGTTTGGCTGCTTATGGTGACAACTTATAGTTATCATCATAAGCTACTTGGTCTTGCCAACCGGAGAATTATTTGGTTATTTGTTGGTTTCATAAACCTACAGTCGTATTTTCCTGTCTTATTAATTGTTCTCAAAATTAACAACA",6.83E+07
8,"Hepacivirus B (nucleic acid, Hepacivirus B) DNA: ACCACAAACACTCCAGTTTGTTACACTCCGCTAGGAATGCTCCTGGAGCACCCCCCCTAGCAGGGCGTGGGGGATTTCCCCTGCCCGTCTGCAGAAGGGTGGAGCCAACCACCTTAGTATGTAGGCGGCGGGACTCATGACGCTCGCGTGATGACAAGCGCCAAGCTTGACTTGGATGGCCCTGATGGGCGTTCATGGGTTCGGTGGTGGTGGCGCTTTAGGCAGCCTCCACGCCCACCACCTCCCAGATAGAGCGGCGGCACTGTAGGGAAGACCGGGGACCGGTCACTACCAAGGACGCAGACCTCTTTTTGAGTATCACGCCTCCGGAAGTAGTTGGGCAAGCCCACCTATATGTGTTGGGATGGTTGGGGTTAGCCATCCATACCGTACTGCCTGATAGGGTCCTTGCGAGGGGATCTGGGAGTCTCGTAGACCGTAGCAC",8.84E+04
9,"Equine rhinitis B virus 1 (nucleic acid, lipid formulation; source: /note=""Description of Unknown: Equine rhinitis B virus 1 sequence"") CGACAGGCACAGGTCGCTCCGAGTTCTAGTAGTGTGGGAACTTGTTACTACTGATGAAACGAGGTAGTGACACTCAGTACCTGCGAACGAGGTCGGGGCCCTCCCTTCTTCCTTCACCCAACTTTCACTTTTCGTTCCACTTTAGCAGGGGTCTTCTTTCTATCCCCCTGGCGGCATTGGAACTAGCCGTCGCGTCTTAACGCGCAGCCCTGAAGGCCCCACACCTTGTGGATCTTGCCGTGGGTATGTTTCTGGCATGTGTTTCTCAAGCCTGCAACCGAAGCCGAACAGCCACATGAACAGTTTGAGCGTGGTAGCGCTGTGTGAGTTGGCGGTGGATCCCCCTCGTGGTAACACGAGCCCCCGTGGCCAAAAGCCCAGTGTTTACAGCACCTCTCACATCCAGGACGACCCCATCCTGGCGCTCACTCTTAGTAGTATGGCTTAGTACGCATTAGGTGGTAAGCCGAGCTCTCCCTCGGCCTTGTTCTGAATGCACACATGTCTAGGGGCTAAGGATGTCCTACAGGTACCCGCACGTAACCTTCAGAGAGTGCGGATCTGAGTAGGAGACCGTGGTGCACTGCTTTACAGATGCAGCCCGGTTTAAAAAGCGTCTATGCCCCTACAGGGTAGCGGTGGGCCGCGCCCTTTCCTTTTAAAACTACTTGTTCT",1.01E+05
